Test results from FireProtDB (doi:10.1111/febs.12694).
Several values for one entry are separate records, joined by “and”; a condition that tells them apart may be missing. Equal entries are not always repeated.

B1: Bacteriorhodopsin, P02945 (parent)
chain: MLELLPTAVEGVSQAQITGRPEWIWLALGTALMGLGTLYFLVKGMGVSDPDAKKFYAITTLVPAIAFTMYLSMLLGYGLTMVPFGGEQNPIYWARYADWLFTTPLLLLDLALLVDADQGTILALVGADGIMIGTGLVGALTKVYSYRFVWWAISTAAMLYILYVLFFGFTSKAESMRPEVASTFKVLRNVTVVLWSAYPVVWLIGSEGAGIVPLNIETLLFMVLDVSAKVGFGLILLRSRAIFGEAEAPEPSAGDGAAATSD

Variants of: B1
Conditions: Halobacterium salinarum (strain ATCC 700922 / JCM 11081 / NRC-1); pH 3.5; Thermal; DSC; structure 1C3W; whole UniProt chain shown

Row | Variant | Tm [°C] | change of melting temperature, mutant - wild type (higher = more stable) [°C]
1 | E22Q E207Q E217Q | 69.4 | -7.2

Same assay, conditions: Halobacterium salinarum (strain ATCC 700922 / JCM 11081 / NRC-1); pH 4; Thermal; UV spectroscopy; transition: 2; structure 1C3W; whole UniProt chain shown

Row | Variant | Tm | change of melting temperature, mutant - wild type (higher = more stable) [°C]
2 | E22Q E207Q E217Q | 60.1 °C and 64.1 °C | -5.1

Same assay, conditions: Halobacterium salinarum (strain ATCC 700922 / JCM 11081 / NRC-1); pH 7; Thermal; DSC; structure 1C3W; whole UniProt chain shown

Row | Variant | Tm [°C] | change of melting temperature, mutant - wild type (higher = more stable) [°C]
3 | E22Q E207Q E217Q | 93.3 | -4.9

Same assay, conditions: Halobacterium salinarum (strain ATCC 700922 / JCM 11081 / NRC-1); pH 7; Thermal; UV spectroscopy; transition: 2; structure 1C3W; whole UniProt chain shown

Row | Variant | change of melting temperature, mutant - wild type (higher = more stable) [°C]
4 | E22Q E207Q E217Q | -0.4

Same assay, conditions: Halobacterium salinarum (strain ATCC 700922 / JCM 11081 / NRC-1); pH 9; Thermal; DSC; structure 1C3W; whole UniProt chain shown

Row | Variant | Tm [°C] | change of melting temperature, mutant - wild type (higher = more stable) [°C]
5 | E22Q E207Q E217Q | 82.6 | -11.9

Same assay, conditions: Halobacterium salinarum (strain ATCC 700922 / JCM 11081 / NRC-1); pH 9.5; Thermal; UV spectroscopy; glycine buffer; transition: 2; structure 1C3W; whole UniProt chain shown

Row | Variant | change of melting temperature, mutant - wild type (higher = more stable) [°C]
6 | E22Q E207Q E217Q | 0
